Laboratory results from PMC6771166.

Experiment: 5′-nucleotidase kit, transfected PLC/PRF/5 lysates
Conditions: glycan lost; control: wild type

Protein | enzymatic_activity, percent_of_wt
CD73 (ecto‐5′‐nucleotidase): N311Q (protein) parent chain: MCPRAARAPATLLLALGAVLWPAAGAWELTILHTNDVHSRLEQTSEDSSKCVNASRCMGGVARLFTKVQQIRRAEPNVLLLDAGDQYQGTIWFTVYKGAEVAHFMNALRYDAMALGNHEFDNGVEGLIEPLLKEAKFPILSANIKAKGPLASQISGLYLPYKVLPVGDEVVGIVGYTSKETPFLSNPGTNLVFEDEITALQPEVDKLKTLNVNKIIALGHSGFEMDKLIAQKVRGVDVVVGGHSNTFLYTGNPPSKEVPAGKYPFIVTSDDGRKVPVVQAYAFGKYLGYLKIEFDERGNVISSHGNPILLNSSIPEDPSIKADINKWRIKLDNYSTQELGKTIVYLDGSSQSCRFRECNMGNLICDAMINNNLRHTDEMFWNHVSMCILNGGGIRSPIDERNNGTITWENLAAVLPFGGTFDLVQLKGSTLKKAFEHSVHRYGQSTGEFLQVGGIHVVYDLSRKPGDRVVKLDVLCTKCRVPSYDPLKMDEVYKVILPNFLANGGDGFQMIKDELLRHDSGDQDINVVSTYISKMKVIYPAVEGRIKFSTGSHCHGSFSLIFLSLWAVIFVLYQ | decreases
CD73 (ecto‐5′‐nucleotidase): N333Q (protein) parent chain: MCPRAARAPATLLLALGAVLWPAAGAWELTILHTNDVHSRLEQTSEDSSKCVNASRCMGGVARLFTKVQQIRRAEPNVLLLDAGDQYQGTIWFTVYKGAEVAHFMNALRYDAMALGNHEFDNGVEGLIEPLLKEAKFPILSANIKAKGPLASQISGLYLPYKVLPVGDEVVGIVGYTSKETPFLSNPGTNLVFEDEITALQPEVDKLKTLNVNKIIALGHSGFEMDKLIAQKVRGVDVVVGGHSNTFLYTGNPPSKEVPAGKYPFIVTSDDGRKVPVVQAYAFGKYLGYLKIEFDERGNVISSHGNPILLNSSIPEDPSIKADINKWRIKLDNYSTQELGKTIVYLDGSSQSCRFRECNMGNLICDAMINNNLRHTDEMFWNHVSMCILNGGGIRSPIDERNNGTITWENLAAVLPFGGTFDLVQLKGSTLKKAFEHSVHRYGQSTGEFLQVGGIHVVYDLSRKPGDRVVKLDVLCTKCRVPSYDPLKMDEVYKVILPNFLANGGDGFQMIKDELLRHDSGDQDINVVSTYISKMKVIYPAVEGRIKFSTGSHCHGSFSLIFLSLWAVIFVLYQ | decreases
